For five sequences, Kd results are on record in the Immune Epitope Database (IEDB).

One assay has as its target HLA-A*26:01. In words: IEDB peptide-MHC binding, purified MHC/competitive/fluorescence; filed as Kd, often an IC50 or EC50 that approximates it; ≥ and ≤ were set here for values at or beyond the usual limits of such assays.
For a further assay, the target named is HLA-B*18:01. Described as above.
The target in a further assay is HLA-B*51:01. The assay is described as above.
For another assay, the target named is HLA-B*57:01. Described as above.
Another assay has as its target HLA-A*69:01. The assay is described as above.
A further assay has as its target HLA-B*46:01. The description is as above.
The next assay deals with HLA-A*02:01. The description is as above.
For another assay, the target named is HLA-B*27:03. The description is as above.
A further assay has as its target HLA-B*15:17. The description is as above.
The target in a further assay is HLA-B*39:01. The assay is described as above.
The target in assay [1] is HLA-A*23:01. As to the kind of experiment: IEDB peptide-MHC binding, purified MHC/direct/fluorescence; filed as Kd, often an IC50 or EC50 that approximates it; ≥ and ≤ were set here for values at or beyond the usual limits of such assays.
Assay [2] addresses HLA-A*24:03. The assay is described as above.
For assay [3], the target named is HLA-B*15:01. The description is as above. The settings on record: source organism: Sudan ebolavirus - Maleo (1979).
The target in the next assay is HLA-A*68:02. The assay is described as above.
Assay [4] deals with HLA-A*02:11. The description is as above.
Assay [5] has as its target HLA-A*03:01. The assay is described as above.
The target of assay [6] is HLA-A*02:03. The assay is described as above.
The target of assay [7] is HLA-A*02:16. The description is as above.
For assay [8], the target named is HLA-A*02:12. Described as above.
In assay [9] the target is HLA-A*02:19. The assay is described as above.
For assay [10], the target named is HLA-B*15:01. In words: IEDB peptide-MHC binding, purified MHC/competitive/fluorescence; filed as Kd, often an IC50 or EC50 that approximates it; ≥ and ≤ were set here for values at or beyond the usual limits of such assays.
The target in a further assay is HLA-B*07:02. As to the kind of experiment: IEDB peptide-MHC binding, purified MHC/direct/fluorescence; filed as Kd, often an IC50 or EC50 that approximates it; ≥ and ≤ were set here for values at or beyond the usual limits of such assays.
Assay [11] concerns the target HLA-A*29:02. The assay is described as above.
Assay [12] deals with HLA-A*23:01. As to the kind of experiment: IEDB peptide-MHC binding, purified MHC/competitive/fluorescence; filed as Kd, often an IC50 or EC50 that approximates it; ≥ and ≤ were set here for values at or beyond the usual limits of such assays.
Assay [13] concerns the target HLA-A*24:03. Described as above.
Assay [14] concerns the target HLA-A*29:02. The description is as above.
The target of assay [15] is HLA-A*03:01. Described as above.
Assay [16] concerns the target HLA-A*02:03. The assay is described as above.
Assay [17] has as its target HLA-A*02:16. The assay is described as above. The settings on record: source organism: Vibrio parahaemolyticus AQ3810.
Assay [18] concerns the target HLA-A*02:12. Described as above.
The target of assay [19] is HLA-A*02:19. The assay is described as above.
In assay [20] the target is HLA-A*02:11. The description is as above. Conditions: source organism: Vibrio vulnificus CMCP6.
[21] abbreviates: source organism: Zaire ebolavirus.
Where [22] appears, read: source organism: Ravn virus - Ravn, Kenya, 1987.
Setting [23] is: source organism: Reston ebolavirus.
[24] abbreviates: source organism: Vibrio parahaemolyticus AQ3810.
Where [25] appears, read: source organism: Vibrio vulnificus CMCP6.

One may read the Kd as the free concentration of one partner at which half of the binding sites on the other are occupied at equilibrium, for simple one-to-one binding. Read a low Kd as tighter binding. Regarding PQVLGGLSF, the Kd with HLA-A*26:01 (setting [21]), with HLA-B*18:01 (setting [21]), in the assay with HLA-B*51:01 (setting [21]), in the assay with HLA-B*57:01 (setting [21]), with HLA-A*69:01 (setting [21]) and with HLA-B*46:01 (setting [21]) was ≥ 20 µM each time. For the same sequence, the Kd with HLA-A*02:01 (setting [21]), with HLA-B*27:03 (setting [21]), in the assay with HLA-B*15:17 (setting [21]), in the assay with HLA-B*39:01 (setting [21]), in the assay with HLA-A*23:01 [1] (setting [22]) and in the assay with HLA-A*24:03 [2] (setting [22]) was ≥ 20 µM in each case. Moreover, the Kd in the assay with HLA-B*15:01 [3] is 0.475 µM; with HLA-A*68:02 (setting [22]), ≥ 20 µM; in the assay with HLA-A*02:11 [4] (setting [22]) it was ≥ 20 µM; in the assay with HLA-A*03:01 [5] (setting [22]) it was ≥ 20 µM; in the assay with HLA-A*02:03 [6] (setting [22]), ≥ 20 µM; in the assay with HLA-A*02:16 [7] (setting [22]) it was ≥ 20 µM. Further, the Kd with HLA-A*02:12 [8] (setting [22]) and with HLA-A*02:19 [9] (setting [22]) was ≥ 20 µM throughout.
Regarding LPRERFRKT, the dissociation constant (Kd) in the assay with HLA-A*26:01 (setting [23]), with HLA-B*15:01 [10] (setting [23]), with HLA-B*18:01 (setting [23]), with HLA-B*51:01 (setting [23]), with HLA-B*57:01 (setting [23]) and in the assay with HLA-A*69:01 (setting [23]) was ≥ 20 µM in each case. In addition, the Kd with HLA-B*46:01 (setting [23]), in the assay with HLA-A*02:01 (setting [23]), in the assay with HLA-B*27:03 (setting [23]), in the assay with HLA-B*15:17 (setting [23]), in the assay with HLA-B*39:01 (setting [23]) and with HLA-A*23:01 [1] (setting [23]) was ≥ 20 µM throughout. In addition, the dissociation constant Kd is ≥ 20 µM with HLA-A*24:03 [2] (setting [23]); 0.179 µM in the assay with HLA-B*07:02 (source organism: Tai Forest virus - Cote d'Ivoire, Cote d'Ivoire, 1994); ≥ 20 µM in the assay with HLA-A*29:02 [11] (setting [23]); ≥ 20 µM with HLA-A*68:02 (setting [23]); ≥ 20 µM with HLA-A*02:11 [4] (setting [23]); ≥ 20 µM with HLA-A*03:01 [5] (setting [23]). For the same sequence, the Kd in the assay with HLA-A*02:03 [6] (setting [23]), with HLA-A*02:16 [7] (setting [23]), with HLA-A*02:12 [8] (setting [23]) and with HLA-A*02:19 [9] (setting [23]) was ≥ 20 µM throughout.
On to TPSHYSGNI, for which the Kd with HLA-A*26:01 (setting [21]), with HLA-B*15:01 [10] (setting [21]), with HLA-B*18:01 (setting [21]), in the assay with HLA-B*51:01 (setting [21]), in the assay with HLA-B*57:01 (setting [21]) and in the assay with HLA-A*69:01 (setting [21]) was ≥ 20 µM throughout. Also, the Kd with HLA-B*46:01 (setting [21]), with HLA-A*02:01 (setting [21]), with HLA-B*27:03 (setting [21]), with HLA-B*15:17 (setting [21]), in the assay with HLA-B*39:01 (setting [21]) and with HLA-A*23:01 [1] (setting [21]) was ≥ 20 µM throughout. Moreover, the Kd in the assay with HLA-A*24:03 [2] (setting [21]) is ≥ 20 µM; with HLA-B*07:02 (source organism: Sudan ebolavirus - Maleo (1979)), 0.442 µM; with HLA-A*29:02 [11] (setting [21]), ≥ 20 µM; in the assay with HLA-A*68:02 (setting [21]), ≥ 20 µM; in the assay with HLA-A*02:11 [4] (setting [21]) it was ≥ 20 µM; with HLA-A*03:01 [5] (setting [21]) it was ≥ 20 µM. Further, the Kd in the assay with HLA-A*02:03 [6] (setting [21]), in the assay with HLA-A*02:16 [7] (setting [21]), in the assay with HLA-A*02:12 [8] (setting [21]) and with HLA-A*02:19 [9] (setting [21]) was ≥ 20 µM throughout.
For the sequence KVGYFQHGA, the Kd with HLA-A*26:01 (setting [24]), with HLA-A*23:01 [12] (setting [24]), in the assay with HLA-A*24:03 [13] (setting [24]), in the assay with HLA-A*29:02 [14] (setting [24]), with HLA-B*15:01 [10] (setting [24]) and with HLA-B*18:01 (setting [24]) was ≥ 20 µM each time. The equilibrium dissociation constant (Kd) with HLA-B*51:01 (setting [24]), with HLA-B*57:01 (setting [24]), in the assay with HLA-B*46:01 (setting [24]), with HLA-A*03:01 [15] (setting [24]), with HLA-A*02:01 (setting [24]) and with HLA-A*02:03 [16] (setting [24]) was ≥ 20 µM each time. Also, the Kd with HLA-B*27:03 (setting [24]) is ≥ 20 µM; with HLA-A*02:16 [17], ≥ 20 µM; with HLA-B*15:17 (setting [24]), ≥ 20 µM; with HLA-A*02:12 [18] (setting [24]), 0.171 µM; with HLA-B*39:01 (setting [24]) it was ≥ 20 µM; with HLA-A*02:19 [19] (setting [24]) it was ≥ 20 µM.
As for WLAGFEPSE, the Kd with HLA-A*26:01 (setting [25]), with HLA-A*23:01 [12] (setting [25]), in the assay with HLA-A*24:03 [13] (setting [25]), in the assay with HLA-A*29:02 [14] (setting [25]), with HLA-B*15:01 [10] (setting [25]) and with HLA-B*18:01 (setting [25]) was ≥ 20 µM each time. The Kd with HLA-B*51:01 (setting [25]), in the assay with HLA-B*57:01 (setting [25]), with HLA-A*02:11 [20], with HLA-B*46:01 (setting [25]), in the assay with HLA-A*03:01 [15] (setting [25]) and in the assay with HLA-A*02:01 (setting [25]) was ≥ 20 µM throughout. The Kd is ≥ 20 µM with HLA-A*02:03 [16] (setting [25]); ≥ 20 µM with HLA-B*27:03 (setting [25]); 0.453 µM with HLA-A*02:12 [18] (setting [25]); ≥ 20 µM with HLA-B*39:01 (setting [25]); ≥ 20 µM in the assay with HLA-A*02:19 [19] (setting [25]).
